“And” between values parts separate entries of the source, which are not always exact repeats. Equal entries are not always repeated.

Data set [1] has as its target CCHFV nucleocapsid protein (N) (Crimean-Congo hemorrhagic fever virus strain 10200) (UniProt P89522). The data set is described as follows: filter binding. To be noted: 40 mM Tris-HCl pH 7.4, 80 mM NaCl (or 250 mM), 20 mM KCl, 1 mM DTT, room temperature, 30-45 min.
The target is the same in data set [2]. The data set is described as follows: BLI. To be noted: 40 mM Tris-HCl pH 7.4, 80 mM NaCl (or 250 mM), 20 mM KCl, 1 mM DTT, room temperature, 30-45 min.
For data set [3] the target is unchanged. The data set is described as follows: tryptophan fluorescence. Conditions: 40 mM Tris-HCl pH 7.4, 80 mM NaCl (or 250 mM), 20 mM KCl, 1 mM DTT, room temperature, 30-45 min.
In data set [4] the target is CCHFV nucleocapsid protein (N) (Crimean-Congo hemorrhagic fever virus …, UniProt P89522 1-482). Briefly: competition; vs labeled 5' NCR; 40 mM Tris-HCl pH 7.4, 80 mM NaCl (or 250 mM), 20 mM KCl, 1 mM DTT, room temperature, 30-45 min. Conditions: protein: recombinant; tags: His (C-terminal per Methods; Results says N-terminal); biotin (BLI); none (fluorescence); single strand.
Sequence of CCHFV nucleocapsid protein (N) (P89522 whole entry): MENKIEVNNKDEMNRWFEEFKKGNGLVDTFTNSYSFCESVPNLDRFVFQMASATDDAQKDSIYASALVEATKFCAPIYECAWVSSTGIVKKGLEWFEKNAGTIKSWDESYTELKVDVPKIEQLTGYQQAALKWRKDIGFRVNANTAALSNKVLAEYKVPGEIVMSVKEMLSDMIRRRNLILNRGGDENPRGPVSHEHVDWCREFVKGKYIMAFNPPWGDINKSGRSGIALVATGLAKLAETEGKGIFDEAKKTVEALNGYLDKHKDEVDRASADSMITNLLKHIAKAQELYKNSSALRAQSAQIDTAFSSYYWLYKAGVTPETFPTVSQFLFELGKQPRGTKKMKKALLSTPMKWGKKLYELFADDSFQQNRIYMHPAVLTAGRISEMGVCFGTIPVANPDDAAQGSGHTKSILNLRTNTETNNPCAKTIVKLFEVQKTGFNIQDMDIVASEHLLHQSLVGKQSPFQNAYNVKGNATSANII

Sequence of CCHFV nucleocapsid protein (N) (Crimean-Congo hemorrhagic fever virus strain 10200) (P89522 whole entry): as above

With 5' NCR 60 nt, in data set [1], the Kd came to 131 nM. On the same count and under the same terms, to 5' NCR 100 nt belongs 131 nM.

As to 5' NCR (30 nt), the Kd was 131 nM in data set [2]; 167 nM in data set [3]; 121 nM and 147 nM in data set [1].

In data set [1], CCHF S-segment vRNA came in with a Kd of 55 nM. Turning to Gluc RNA, the Kd in data set [1] is 55 nM and 43 nM. Take Nonviral ssRNA (30 nt): the Kd in data set [1] worked out at 121 nM. Regarding Wild type panhandle, the Kd in data set [2] was 41 nM; in data set [3], 48 nM; in data set [1], 42 nM and 47 nM. For the molecule UGGGCGUAAGCGGCACGUGUUUCUUUGAGA (ssRNA) [3' NCR (30 nt)], the binding result in data set [4] is given as “binds”.

As usually defined, the Kd is the equilibrium constant for the complex coming apart.

For the origin of these results see publication PMC5602631, “Crimean-Congo hemorrhagic fever virus nucleocapsid protein has dual RNA binding modes”.
